Laboratory results published in PMC9489729, “The AAA+ ATPase RavA and its binding partner ViaA modulate E. coli aminoglycoside sensitivity through interaction with the inner membrane” (Nature Communications, 2022).

How the values were obtained:
[1] = molecular target: T1, C-terminally His-tagged RavA (E. coli, UniProt P31473 1-498); experiment: BLI; biotinylated ViaA construct immobilised on streptavidin biosensors, RavA in solution with 1 mM ADP (pre-incubated 10 min); HBS kinetics buffer, 293 K; 1:1 model; settings: both partners purified
T1 construct: RavA, MoxR AAA+ ATPase, E. coli K-12 MG1655; It cites earlier work for RavA being a hexamer with ADP or ATP and partly monomeric without nucleotide; also called apo-RavA; not shown: His tag, C-terminal, kept

[2] = molecular target: T1, C-terminally His-tagged RavA; experiment: BLI; biotinylated ViaA construct immobilised on streptavidin biosensors, ligand in solution, no nucleotide added; HBS kinetics buffer (25 mM HEPES pH 7.5, 300 mM NaCl, 10 mM MgCl2, 10 % glycerol, 0.1% BSA, 0.02% Tween-20), 293 K, Octet RED96; 1:1 model; settings: both partners purified
[3] = molecular target: the molecule itself; experiment: SEC-MALS; Superdex 200 increase 10/300 GL, 4 °C, 25 mM HEPES pH 7.5, 300 mM NaCl, 10 mM MgCl2, 10 % glycerol; AviTag-ViaA-His 80 µL at 3 mg/mL, His-NTV-AviTag 80 µL at 2 mg/mL
[4] = molecular target: the molecule itself; experiment: SAXS; AviTag-ViaA-His at 3 mg/mL, 25 mM HEPES pH 7.5, 300 mM NaCl, 10 mM MgCl2, 10 % glycerol, 20 °C; MW by SAXSMoW and ScÅtter
[5] = molecular target: T1, C-terminally His-tagged RavA; experiment: BLI; Supplementary Fig. 1: biotinylated His-NTV-AviTag or ViaA immobilised on streptavidin biosensors, RavA or RavAΔLARA in solution; HBS kinetics buffer, 293 K; the methods say 1 mM ADP was added with RavA or RavAΔLARA; settings: both partners purified

T1 sequence (P31473 whole entry): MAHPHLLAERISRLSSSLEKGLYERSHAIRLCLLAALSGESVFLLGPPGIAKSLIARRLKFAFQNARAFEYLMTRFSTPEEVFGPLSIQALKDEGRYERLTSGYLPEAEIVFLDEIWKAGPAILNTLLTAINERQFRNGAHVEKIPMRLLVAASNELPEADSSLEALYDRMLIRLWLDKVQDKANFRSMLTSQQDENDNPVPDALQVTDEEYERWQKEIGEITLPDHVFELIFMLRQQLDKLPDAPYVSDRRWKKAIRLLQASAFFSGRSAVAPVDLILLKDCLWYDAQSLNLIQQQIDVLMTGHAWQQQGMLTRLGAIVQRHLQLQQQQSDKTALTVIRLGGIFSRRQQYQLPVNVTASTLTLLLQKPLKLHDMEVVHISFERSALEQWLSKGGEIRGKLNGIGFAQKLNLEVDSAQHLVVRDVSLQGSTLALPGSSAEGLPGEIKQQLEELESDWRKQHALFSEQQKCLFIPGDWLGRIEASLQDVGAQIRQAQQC

| Binder | Kd [1] [µM] | Kd [2] [µM] | stoichiometry N [3] | stoichiometry N [4] | binding result [5] |
| --- | --- | --- | --- | --- | --- |
| His-ViaA-AviTag (natural protein, E. coli, UniProt P0ADN0 1-483, looked up, biotinylated for the BLI binding studies (50 μM D-biotin added to the LB medium during expression), ViaA, E. coli, residues 1-483, cloned in the p11-Toronto1 vector; also called C-terminally AviTagged ViaA; source: E. coli BL21 (DE3), purified (NiNTA IMAC, desalting, SEC); not shown: His6, N-terminal, kept) MLTLDTLNVMLAVSEEGLIEEMIIALLASPQLAVFFEKFPRLKAAITDDVPRWREALRSRLKDARVPPELTEEVMCYQQSQLLSTPQFIVQLPQILDLLHRLNSPWAEQARQLVDANSTITSALHTLFLQRWRLSLIVQATTLNQQLLEEEREQLLSEVQERMTLSGQLEPILADNNTAAGRLWDMSAGQLKRGDYQLIVKYGEFLNEQPELKRLAEQLGRSREAKSIPRNDAQMETFRTMVREPATVPEQVDGLQQSDDILRLLPPELATLGITELEYEFYRRLVEKQLLTYRLHGESWREKVIERPVVHKDYDEQPRGPFIVCVDTSGSMGGFNEQCAKAFCLALMRIALAENRRCYIMLFSTEIVRYELSGPQGIEQAIRFLSQQFRGGTDLASCFRAIMERLQSREWFDADAVVISDFIAQRLPDDVTSKVKELQRVHQHRFHAVAMSAHGKPGIMRIFDHIWRFDTGMRSRLLRRWRR | ~2.2 | 11 |  |  |  |
| AviTag-ViaA-His (natural protein, E. coli, UniProt P0ADN0 1-483, looked up, biotinylated for the BLI binding studies (50 μM D-biotin added to the LB medium during expression), ViaA, E. coli K-12 MG1655, VWA domain protein, residues 1-483 (NTV 1-319, CTV/VWA domain 320-483), cloned in pET22b; Dimer by SEC-MALLS and SAXS; Theoretical MW of the construct is 60.4 kDa; also called AVI-ViaA-HIS; N-terminally AviTagged ViaA; source: E. coli BL21 (DE3), purified (NiNTA IMAC, desalting, SEC); not shown: AviTag, N-terminal, kept; His tag, C-terminal, kept) MLTLDTLNVMLAVSEEGLIEEMIIALLASPQLAVFFEKFPRLKAAITDDVPRWREALRSRLKDARVPPELTEEVMCYQQSQLLSTPQFIVQLPQILDLLHRLNSPWAEQARQLVDANSTITSALHTLFLQRWRLSLIVQATTLNQQLLEEEREQLLSEVQERMTLSGQLEPILADNNTAAGRLWDMSAGQLKRGDYQLIVKYGEFLNEQPELKRLAEQLGRSREAKSIPRNDAQMETFRTMVREPATVPEQVDGLQQSDDILRLLPPELATLGITELEYEFYRRLVEKQLLTYRLHGESWREKVIERPVVHKDYDEQPRGPFIVCVDTSGSMGGFNEQCAKAFCLALMRIALAENRRCYIMLFSTEIVRYELSGPQGIEQAIRFLSQQFRGGTDLASCFRAIMERLQSREWFDADAVVISDFIAQRLPDDVTSKVKELQRVHQHRFHAVAMSAHGKPGIMRIFDHIWRFDTGMRSRLLRRWRR | ~2.2 | 18.9 | ~2 | 2 |  |
| His-NTV-AviTag (domain or fragment, E. coli, UniProt P0ADN0 1-319, looked up, biotinylated for the BLI binding studies (50 μM D-biotin added to the LB medium during expression), ViaA, E. coli, N-terminal domain (NTV), residues 1-319; also called N-Terminal domain of ViaA; source: E. coli, expressed and purified as the ViaA constructs (NiNTA IMAC, desalting, SEC)) MLTLDTLNVMLAVSEEGLIEEMIIALLASPQLAVFFEKFPRLKAAITDDVPRWREALRSRLKDARVPPELTEEVMCYQQSQLLSTPQFIVQLPQILDLLHRLNSPWAEQARQLVDANSTITSALHTLFLQRWRLSLIVQATTLNQQLLEEEREQLLSEVQERMTLSGQLEPILADNNTAAGRLWDMSAGQLKRGDYQLIVKYGEFLNEQPELKRLAEQLGRSREAKSIPRNDAQMETFRTMVREPATVPEQVDGLQQSDDILRLLPPELATLGITELEYEFYRRLVEKQLLTYRLHGESWREKVIERPVVHKDYDEQPR |  |  |  |  | binds |
